From article PMC9926225 come the findings set out here.

Usually stoichiometry N stands for the number of molecules, sites or subunits per partner or assembly.

Assay [1] has as its target NTD truncated λCI (K192A, residues 101 to 236), C-hexahistidine-tagged (λ phage). Briefly: SEC. On the technique in general: In gel filtration, larger molecules generally elute earlier.
Assay [2] has as its target RecA (1 to 335), N-heptahistidine-tagged (Escherichia coli). In words: cryo-EM structure.

RecA (1 to 335), N-heptahistidine-tagged (Escherichia coli), sequence (A7ZQC8 2-336 limits assumed): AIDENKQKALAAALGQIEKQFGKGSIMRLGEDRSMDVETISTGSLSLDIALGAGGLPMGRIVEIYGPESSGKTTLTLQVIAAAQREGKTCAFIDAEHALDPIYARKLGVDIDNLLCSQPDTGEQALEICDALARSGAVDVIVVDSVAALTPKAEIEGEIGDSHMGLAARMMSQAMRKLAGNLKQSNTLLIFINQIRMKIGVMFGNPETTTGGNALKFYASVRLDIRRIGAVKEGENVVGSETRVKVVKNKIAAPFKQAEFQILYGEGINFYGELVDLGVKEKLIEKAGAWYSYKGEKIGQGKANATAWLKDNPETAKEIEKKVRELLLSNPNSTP

“NTD truncated λCI (K192A, residues 101 to 236), C-hexahistidine-tagged (domain or fragment)” showed a stoichiometry N in assay [1] of 2.

B1: DinI (natural protein)
chain: MRIEVTIAKTSPLPAGAIDALAGELSRRIQYAFPDNEGHVSVRYAAANNLSVIGATKEDKQRISEILQETWESADDWFVSE
For B1, the stoichiometry N (DinI molecules per RecA protomer) in assay [2] came out at 0.5.
